In the series the target is DAP3-GST (UniProt P51398 1-398). Kind of series: EMSA. (Mobility shift assays separate free from complexed probe on a gel.)

B1: HTR2C RNA duplex probe (structured_RNA)
RNA: AUCAUGCACCUCUGCGCUAUAUCGCUGGAUCGGUAUGUAGCAAUACGUAAUCCUAUUGAGCAUAGCCGUUUCAAUUCGCGGACUAAGGCCAUCAUGAAGAUUGCUAUUGUUUGGGCAAUUUCUAUAGGUAAAUAAAACUUUUUGGCCAUAAGAAUUGCAGCGGCUAUGCUCAAUACUUUCGGAUUAUGUACUGUGAACAACGUACAGACGUCGACUGGUAACAUUUGCGUUUGAUCGGGUUCU
B1: the binding result is recorded as “no binding”.

B2: MAGT1 RNA duplex probe (structured_RNA)
RNA: GCUAAUUUUUGUGUUUUUAGUAGAGACCUCGAGGUCUCUACUAAAAAUAUGAAAAUUAGC
For B2, the binding result is on record as “no binding”.
